Values of other authors, collected in publication PMC5535775.

Biological target: DIAPH1 FH1 (Homo sapiens) (UniProt O60610)
Experiment: NMR

Chain of UniProt O60610 (O60610 580-767): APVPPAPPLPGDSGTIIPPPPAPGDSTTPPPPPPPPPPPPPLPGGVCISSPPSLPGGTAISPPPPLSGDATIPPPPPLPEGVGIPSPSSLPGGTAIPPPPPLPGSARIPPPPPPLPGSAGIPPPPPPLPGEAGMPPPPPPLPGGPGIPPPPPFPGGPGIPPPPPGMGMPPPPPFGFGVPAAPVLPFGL

- Kd: < 10 µM
Substance: RAGE cytoplasmic domain (from UniProt Q15109)
